{"source": "the RNAGym collection of RNA variant scans (doi:10.7554/elife.80360)", "parents": {"B1": {"name": "HDV Ribozyme (parent)", "chain": "GGCCGGCAUGGUCCCAGCCUCCUCGCUGGCGCCGGCUGGGCAACAUUCCGAGGGGACCGUCCCCUCGGUAAUGGCGAAUGGGACCCA"}}}
{"variants_of": "B1", "test": "self-cleavage, relative activity (ratio to wild type); higher = more cleavage; co-transcriptional"}
{"variant": "GGCCGGCAUUGUCCCAGCCUCCUCGCUGGCGCCGGCUGGGCAACAUUCCGAGGGGACCGUCCCCUCGGUAAUGGCGAAUGGGGCCCA", "note": "[G10U A83G]", "self-cleavage": 0.221}
{"variant": "GGCCGGCAUUGUCCCAGCCUCCUCGCUGGCGCCGGCUGGGCAACAUUCCGAGGGGACCGUCCCCUCGGUAAUGGCGAAUGGGUCCCA", "note": "[G10U A83U]", "self-cleavage": 0.177}
{"variant": "GGCCGGCAUUGUCCCAGCCUCCUCGCUGGCGCCGGCUGGGCAACAUUCCGAGGGGACCGUCCCCUCGGUACUGGCGAAUGGGACCCA", "note": "[G10U A71C]", "self-cleavage": 0.604}
{"variant": "GGCCGGCAUUGUCCCAGCCUCCUCGGUGGCGCCGGCUGGGCAACAUUCCGAGGGGACCGUCCCCUCGGUAAUGGCGAAUGGGACCCA", "note": "[G10U C26G]", "self-cleavage": 0.677}
{"variant": "GGCCGGCAUUGUCCCAGCCUCCUCGUUGGCGCCGGCUGGGCAACAUUCCGAGGGGACCGUCCCCUCGGUAAUGGCGAAUGGGACCCA", "note": "[G10U C26U]", "self-cleavage": 1.13}
{"variant": "GGCCGGCAUUGUCCCAGCCUCCUCGCUGGCGCCGGCUGGGCAACAUUCCGAGGGGACCGUCCCCUCGGUAAUGGCGGAUGGGACCCA", "note": "[G10U A77G]", "self-cleavage": 0.424}
{"variant": "GGCCGGCAUUGUCCCAGCCUCCUCGCUGGCGCCGGCUGGGCAACAUUCCGAGGGGACCGUCCCCUCGGUAAUGGCGUAUGGGACCCA", "note": "[G10U A77U]", "self-cleavage": 0.174}
{"variant": "GGCCGGCAUUGUCCCAGCCUACUCGCUGGCGCCGGCUGGGCAACAUUCCGAGGGGACCGUCCCCUCGGUAAUGGCGAAUGGGACCCA", "note": "[G10U C21A]", "self-cleavage": 0.0332}
{"variant": "GGCCGGCAUUGUCCCAGCCUUCUCGCUGGCGCCGGCUGGGCAACAUUCCGAGGGGACCGUCCCCUCGGUAAUGGCGAAUGGGACCCA", "note": "[G10U C21U]", "self-cleavage": 0.0532}
{"variant": "GGCCGGCAUUGUCCCAGCCUGCUCGCUGGCGCCGGCUGGGCAACAUUCCGAGGGGACCGUCCCCUCGGUAAUGGCGAAUGGGACCCA", "note": "[G10U C21G]", "self-cleavage": 0}
{"variant": "GGCCGGCAUUGUCCCAGUCUCCUCGCUGGCGCCGGCUGGGCAACAUUCCGAGGGGACCGUCCCCUCGGUAAUGGCGAAUGGGACCCA", "note": "[G10U C18U]", "self-cleavage": 0.12}
{"variant": "GGCCGGCAUUGUCCCAGGCUCCUCGCUGGCGCCGGCUGGGCAACAUUCCGAGGGGACCGUCCCCUCGGUAAUGGCGAAUGGGACCCA", "note": "[G10U C18G]", "self-cleavage": 0.111}
{"variant": "GGCCGGCAUUGUCCCAGCCUCCUGGCUGGCGCCGGCUGGGCAACAUUCCGAGGGGACCGUCCCCUCGGUAAUGGCGAAUGGGACCCA", "note": "[G10U C24G]", "self-cleavage": 0.0886}
{"variant": "GGCCGGCAUUGUCCCAGCCUCCUUGCUGGCGCCGGCUGGGCAACAUUCCGAGGGGACCGUCCCCUCGGUAAUGGCGAAUGGGACCCA", "note": "[G10U C24U]", "self-cleavage": 0.427}
{"variant": "GGCCGGCAUUGUCCCAGCCUCCUAGCUGGCGCCGGCUGGGCAACAUUCCGAGGGGACCGUCCCCUCGGUAAUGGCGAAUGGGACCCA", "note": "[G10U C24A]", "self-cleavage": 0.328}
{"variant": "GGCCGGCAUUGUCCCAGCUUCCUCGCUGGCGCCGGCUGGGCAACAUUCCGAGGGGACCGUCCCCUCGGUAAUGGCGAAUGGGACCCA", "note": "[G10U C19U]", "self-cleavage": 0.144}
{"variant": "GGCCGGCAUUGUCCCAGCCUCCUCGCUGGCGCCGGCUGGGCAACAUUCCGAGGGGUCCGUCCCCUCGGUAAUGGCGAAUGGGACCCA", "note": "[G10U A56U]", "self-cleavage": 0.893}
{"variant": "GGCCGGCAUUGUCCCAGCCUCCUCGCUGGCGCCGGCUGGGCAACAUUCCGAGGGGGCCGUCCCCUCGGUAAUGGCGAAUGGGACCCA", "note": "[G10U A56G]", "self-cleavage": 0.689}
{"variant": "GGCCGGCAUUGUCCCAGCCUCCUCGCUGGCGCCGGCUGGGCAACAUUCCGAGGGGACCGUCCCCUCGGUAAUGGCGAGUGGGACCCA", "note": "[G10U A78G]", "self-cleavage": 0.449}
{"variant": "GGCCGGCAUUGUCCCAGCCUCCUCGCUGGCGCCGGCUGGGCAACAUUCCGAGGGGACCGUCCCCUCGGUAAUGGCGACUGGGACCCA", "note": "[G10U A78C]", "self-cleavage": 0.0499}
{"variant": "GGCCGGCAUUGUCCCAGCCUCCUCGCUGGCGCCGGCUGGGCAACAUUCCGGGGGGACCGUCCCCUCGGUAAUGGCGAAUGGGACCCA", "note": "[G10U A51G]", "self-cleavage": 0.707}
{"variant": "GGCCGGCAUUGUCCCAGCCUCCUCGCUGGCGCCGGCUGGGCAACAUUCCGUGGGGACCGUCCCCUCGGUAAUGGCGAAUGGGACCCA", "note": "[G10U A51U]", "self-cleavage": 0.767}
{"variant": "GGCCGGCAUUGUCCCAGCCUCAUCGCUGGCGCCGGCUGGGCAACAUUCCGAGGGGACCGUCCCCUCGGUAAUGGCGAAUGGGACCCA", "note": "[G10U C22A]", "self-cleavage": 0.0941}
{"variant": "GGCCGGCAUUGUCCCAGCCUCGUCGCUGGCGCCGGCUGGGCAACAUUCCGAGGGGACCGUCCCCUCGGUAAUGGCGAAUGGGACCCA", "note": "[G10U C22G]", "self-cleavage": 0.0623}
{"variant": "GGCCGGCAUUGUCCUAGCCUCCUCGCUGGCGCCGGCUGGGCAACAUUCCGAGGGGACCGUCCCCUCGGUAAUGGCGAAUGGGACCCA", "note": "[G10U C15U]", "self-cleavage": 0.445}
{"variant": "GGCCGGCAUUGUCCGAGCCUCCUCGCUGGCGCCGGCUGGGCAACAUUCCGAGGGGACCGUCCCCUCGGUAAUGGCGAAUGGGACCCA", "note": "[G10U C15G]", "self-cleavage": 0.0773}
{"variant": "GGCCGGCAUUGUCCAAGCCUCCUCGCUGGCGCCGGCUGGGCAACAUUCCGAGGGGACCGUCCCCUCGGUAAUGGCGAAUGGGACCCA", "note": "[G10U C15A]", "self-cleavage": 0.222}
{"variant": "GGCCGGCAUUGUCCCAGCCUCCUCGCUGGUGCCGGCUGGGCAACAUUCCGAGGGGACCGUCCCCUCGGUAAUGGCGAAUGGGACCCA", "note": "[G10U C30U]", "self-cleavage": 0.137}
{"variant": "GGCCGGCAUUGUCGCAGCCUCCUCGCUGGCGCCGGCUGGGCAACAUUCCGAGGGGACCGUCCCCUCGGUAAUGGCGAAUGGGACCCA", "note": "[G10U C14G]", "self-cleavage": 0.166}
{"variant": "GGCCGGCAUUGUCACAGCCUCCUCGCUGGCGCCGGCUGGGCAACAUUCCGAGGGGACCGUCCCCUCGGUAAUGGCGAAUGGGACCCA", "note": "[G10U C14A]", "self-cleavage": 0}
{"variant": "GGCCGGCAUUGUACCAGCCUCCUCGCUGGCGCCGGCUGGGCAACAUUCCGAGGGGACCGUCCCCUCGGUAAUGGCGAAUGGGACCCA", "note": "[G10U C13A]", "self-cleavage": 0.0332}
{"variant": "GGCCGGCAUUGUGCCAGCCUCCUCGCUGGCGCCGGCUGGGCAACAUUCCGAGGGGACCGUCCCCUCGGUAAUGGCGAAUGGGACCCA", "note": "[G10U C13G]", "self-cleavage": 0}
